The values that follow come from paper PMC13077772 (2025).

In this test the target is melanoma-associated antigen 3 (MAGE-A3) peptide presented by HLA-A*01:01 (human | ). The test is described as follows: SPR.

B1: mage-513, purified soluble protein (designed binder)
chain: LTVEEAIRLLLETQRRYPELGPEERQVADGALRVASLLLDIIATRRLLGDDDKELEKQLLKRIERLFTAPLPERRRLVEELEEPVLEEAAQAARELVKREQQ
modifications: heavy chain HLA-A*01:01 ectodomain taken by convention from the MAGE-A3/HLA-A1 structure 5BRZ (candidate P04439 is a different allele, A*03:01)
With B1, the affinity, expressed as Kd, was 29 nM.
